Target: MHC class 1 molecules on the target cells
Experiment: cell-based or functional assay

- percent lysis of Volle EBV-LCLs by SKEM NK lines 2, 6 and 7 at a 10:1 E/T ratio after preculture of the targets with W6/32: > 80%
Substance: monoclonal antibody W6/32 (anti-pan class 1 MHC monoclonal antibody; DAKO)

— US20090104170A1
